Test results published in patent US12630632B2, “Bispecific HER2 and CD3 binding molecules” (Memorial Sloan Kettering Cancer Center, priority 2017, dated 2026).

System: naïve T cells
Assay: T cell proliferation (WST-8)
Type: cell-based, human
Details: 67 nM antibody, 6 days
Method: For T cell proliferation, naïve T cells were purified from human PBMC using Pan T cell isolation kit (Miltenyi Biotec). 2×10^5 purified T cells were mixed with different antibodies in 96-well cell culture plate to a final volume of 250 μl/well. T cells were cultured and maintained in RPMI-1640 supplemented with 10% FBS in 37° C. for 6 days. T cell proliferation was quantitated using the WST-8 kit as described above.

B1: huOKT3 Fab: monovalent Fab prepared from huOKT3 IgG1 (antibody, V domains shown)
VH: QVQLVQSGGGVVQPGRSLRLSCKASGYTFTRYTMHWVRQAPGKGLEWIGYINPSRGYTNYNQKFKDRFTISRDNSKNTAFLQMDSLRPEDTGVYFCARYYDDHYCLDYWGQGTPVTVSS
VL: DIQMTQSPSSLSASVGDRVTITCSASSSVSYMNWYQQTPGKAPKRWIYDTSKLASGVPSRFSGSGSGTDYTFTISSLQPEDIATYYCQQWSSNPFTFGQGTKLQITR
- T cell proliferation in the absence of tumor targets: negligible effects
